In US20040186044A1, “Modulation of myelination by interaction with P75 and TRK receptors” (priority 2002, published 2004):

Assays:
[1] = system: Schwann cell/neuronal cocultures; assay: Western blot of myelin proteins MAG and P0 in Schwann cell/DRG neuronal cocultures; assay type: cell-based, rat
Method: (§1) Dorsal Root Ganglia (DRG) Neuronal Schwann Cell Cocultures. Purified neuronal and Schwann cell cultures were prepared as previously described. Neuronal cultures were established from DRG neurons obtained from Sprague-Dawley rat embryos at 15 days gestation (Simonsen Laboratories, Gilroy, Calif.). DRG neurons were dissociated and plated onto collagen coated coverslips. Nonneuronal cells were eliminated by cycling (three 2-day cycles) with a fluorodeoxyuridine-containing medium (10 μM). NGF-dependent neurons were then maintained for 1 week in a medium consisting of 10% FBS in MEM and 100 ng/ml of NGF.
(§2) Schwann cells were isolated from the sciatic nerve of 4-day-old rat pups. Schwann cells were purified by using cytosine arabinoside and Thy-1.1 antibody mediated lysis of the fibroblasts (the anti-Thy-1.1 antibody was obtained from the American Type Culture Collection). Approximately 100,000 purified Schwann cells were than seeded onto purified neuronal cultures of ˜50,000 cells and allowed to proliferate and ensheath the axons (˜1 week). Myelination was then initiated with the addition of ascorbic acid (50 μg/ml), which was replenished with feeding every 2 to 3 days.
(§3) Western Blot Analysis. Samples from Schwann cell/neuronal co-cultures and sciatic nerves were prepared for Western blot analysis by homogenization in radioimmunoprecipitation assay (RIPA) buffer [PBS with 1% Nonidet P-40/0.5% deoxycholate/0.1% SDS/1 mM PMSF/Complete protease inhibitor tablets (Roche Molecular Biochemicals)] followed by high-speed centrifugation. Protein determination was made by using the Bicinchoninic Acid Kit (Sigma). Equivalent amounts of total protein extract from each sample were mixed with sample buffer, boiled, and loaded onto SDS polyacrylamide gels. Electrophoretic separation of the extracts was typically performed on 10-15% (depending on the molecular weight of the protein of interest) discontinuous acrylamide gels under denaturing conditions. The proteins were then transferred to pure nitrocellulose membranes (PROTRAN BA85, Schleicher and Schuell, 0.45 μm) and probed with specific antibodies. The mouse monoclonal anti-myelin-associated glycoprotein (MAG; Chemicon) was used at a concentration of 2.5 μg/ml (under nonreducing conditions); the mouse monoclonal anti-P0 antibody was used at a dilution of 1:5,000. All primary antibodies were incubated overnight at 4° C. Secondary HRP-conjugated anti-mouse IgG and anti-rabbit IgG antibodies were used at a dilution of 1:10,000 (Jackson ImmunoResearch). The blots were developed by chemiluminescence (Renaissance, DuPont_NEN) as described by the manufacturer. All of the blots were imaged and quantitated in the linear range for the corresponding antibodies. Protein concentrations of the samples were serial diluted until linear intensities were achieved. In many instances, the blots were stripped and reprobed with different antibodies.

[2] = system: Schwann cell/neuronal cocultures; assay: P0 immunocytochemistry of mature myelin internodes in Schwann cell/neuronal cocultures; assay type: cell-based; settings: for Schwann cell proliferation and morphology of ensheathed Schwann cells / cell death (neurofilament and nuclear staining): 100 ng/ml; for formation of mature myelin internodes (P0 immunostaining): BDNF, TrkB-Fc, TrkC-Fc 1 μg/ml, added at day of induction, 6 days after induction
Method: as §1, §2
Immunocytochemistry. Cocultures were fixed in 4% paraformaldehyde before dehydration through a graded ethanol series (50, 70, 90, and 100%). Samples were then permeabilized and blocked by incubation with 20% normal goat serum or 10% FCS. Primary antibodies included the mouse monoclonal anti-P0 antibody used at a dilution of 1:500 and the mouse monoclonal anti-MAG at a concentration of 2.5 μg/ml. The Texas red-conjugated anti-mouse IgG (Jackson ImmunoResearch) was used as a secondary antibody at a dilution of 1:1,000. Cellular nuclei were examined by using the Hoechst dye. Samples were mounted and fluorescence microscopy was accomplished by using a Nikon Microphot FXA.

[3] = system: SC/DRG cocultures; assay: TUNEL analysis of neuronal or glial survival in SC/DRG cocultures; assay type: cell-based, rat; settings: added at the start of myelination
[4] = system: p75NTR -/- SC/DRG cocultures; assay: Western blot of P0 and MAG in p75NTR -/- mouse SC/DRG cocultures; assay type: cell-based; settings: six days after initiation of myelination
Method: (§4) (A-B) Newborn wild-type and p75^NTR −/− mice were injected with BDNF (wild-type, n=10; p75^NTR −/−, n=25) and NT3 (wild-type, n=13; p75^NTR −/−, n=14) or the scavengers TrkB-Fc (wild-type, n=13; p75^NTR −/−, n=20) and TrkC-Fc (wild-type, n=14; p75^NTR −/−, n=20) and the levels of (A) P0 and (B) MAG were analyzed by Western-blot 4 days later. Asterisks: p<0.01. (C-D) Wild-type and p75^NTR −/− SC/DRG cocultures were established from E13 mouse embryos obtained through crossing heterozygous (p75^NTR +/−) mice. Levels of (C) P0 and (D) MAG were determined by Western-blot six days after initiation of myelination in the presence of the different factors. Asterisks: p<0.01.

[5] = system: wild-type SC/DRG cocultures; assay: Western blot of P0 and MAG in wild-type mouse SC/DRG cocultures; assay type: cell-based; settings: six days after initiation of myelination
Method: as §4

[6] = system: sciatic nerve of p75NTR -/- mice; assay: Western blot of P0 and MAG in sciatic nerve of injected newborn p75NTR -/- mice; assay type: in vivo, mouse; settings: Western-blot 4 days later
Method: as §4

[7] = system: sciatic nerve; assay: Western blot of MAG and P0 in developing sciatic nerve after s.c. injection of newborn mice; assay type: in vivo, mouse; settings: for P0 and MAG protein expression, wild-type mice: newborn wild-type mice, Western-blot 4 days later
Method: as §3
(§5) Injections in Mouse Sciatic Nerve. BDNF, NT3, TrkB-Fc, and TrkC-Fc (3 μg each; Regeneron Pharmaceuticals) were injected s.c. starting from the caudal portion of the greater trochanter region and running parallel along the sciatic nerve (total volume of 5 μl). T he contralateral leg served as a control for each factor with the injection of saline. Injections were performed on 1-day-old mouse pups (C57BU6, Simonsen Laboratories) and the sciatic nerves were extracted and processed 48 h later. A second set of mice were reinjected with the factors and then examined after an additional 48 h (4 days of total treatment). Nerves used for electron microscopy were trimmed and incisions were made at the flexure of the greater trochanter. In total, 11 animals were analyzed after injection with BDNF, 12 with TrkB-Fc, 11 with NT3, and 7 with TrkC-Fc.

[8] = system: sciatic nerve; assay: Electron microscopy of myelin ultrastructure in developing sciatic nerve of injected newborn mice; assay type: in vivo, mouse
Method: as §5
Electron Microscopy. Electron microscopy was performed by the Electron Microscopy Facility in the Department of Microbiology and Immunology (Stanford University, CA). Processing of the sciatic nerve was accomplished by fixation in 2% glutaraldehyde and 4% paraformaldehyde solution in PBS, followed by post-fixation in 1% OSO4. […] Finally, samples were infiltrated and embedded in pure epoxy.

[9] = 100 ng/ml added at day of induction, analysed after 6 days of induction
[10] = 3 μg at P1, reinjected 2 days later, nerves at P5, vs contralateral saline
[11] = 3 μg at P1, reinjected, nerves at P5

**Q.** For `COC(=O)[C@@]1(O)C[C@H]2O[C@]1(C)n1c3ccccc3c3c4c(c5c6ccccc6n2c5c31)C(=O)NC4` [K252a, K-252a, reference compound], which “accumulation of myelin proteins MAG and P0” value ([1]; rat SC/DRG cocultures treated for 6 days from induction) is on record?
**A.** increase in myelin protein accumulation

**Q.** What about the “formation of mature myelin internodes (P0 immunocytochemistry)” value ([2]; rat SC/DRG cocultures, Example 2) of the same molecule?
**A.** increase

**Q.** What about the “neuronal or glial survival” value [3] of the same molecule?
**A.** does not affect neuronal or glial survival

**Q.** “NT3: neurotrophin-3, gift from Regeneron Pharmaceuticals” was tested. Which “diminished expression of MAG” value [1, 9] did it give?
**A.** ~2 fold

**Q.** What about the “diminished expression of P0” value [1, 9] of the same molecule?
**A.** ~3 fold

**Q.** And the “myelin protein expression (P0, MAG), p75NTR -/- cocultures” value [4]?
**A.** inhibited

**Q.** What about the “Schwann cell proliferation and morphology of ensheathed Schwann cells” value [2] of the same molecule?
**A.** Neither BDNF nor NT3 caused any changes

**Q.** What about the “cell death (neurofilament and nuclear staining)” value [2] of the same molecule?
**A.** no sign of increased cell death

**Q.** And the “formation of mature myelin internodes (P0 immunostaining)” value ([2]; NT3 100 ng/ml)?
**A.** inhibited the appearance of myelin internodes

**Q.** And the “thickness and length of detected internodes vs control cultures” value ([2]; NT3 100 ng/ml, TrkB-Fc 1 μg/ml)?
**A.** significantly thinner and shorter in length

**Q.** What about the “myelin protein expression (P0, MAG), wild-type cocultures” value [5] of the same molecule?
**A.** inhibited

**Q.** And the “P0 and MAG protein expression, p75NTR -/- mice” value [6]?
**A.** inhibited

**Q.** What about the “inhibition of MAG and P0 expression in the sciatic nerves” value ([7]; 3 μg s.c., mice treated for 2 days, vs contralateral leg) of the same molecule?
**A.** ~25%

**Q.** And the “P0 and MAG protein expression, wild-type mice” value [7]?
**A.** inhibited

B1: BDNF: neurotrophin brain-derived neurotrophic factor, gift from Regeneron Pharmaceuticals (protein, UniProt P23560 19-247, looked up)
Neurotrophic factor BDNF …: APMKEANIRGQGGLAYPGVRTHGTLESVNGPKAGSRGLTSLADTFEHVIEELLDEDQKVRPNEENNKDADLYTSRVMLSSQVPLEPPLLFLLEEYKNYLDAANMSMRVRRHSDPARRGELSVCDSISEWVTAADKKTAVDMSGGTVTVLEKVPVSKGQLKQYFYETKCNPMGYTKEGCRGIDKRHWNSQCRTTQSYVRALTMDSKKRIGWRFIRIDTSCVCTLTIKRGR
**Q.** What does the source list for B1?
**A.** enhancement of MAG expression over control cultures [1, 9]: ~2 fold; enhancement of P0 expression over control cultures [1, 9]: ~1.5 fold; modulation of myelination (P0 and MAG) in the presence of K252a ([1]; in combination with K252a, 6 days): still able to modulate myelination; decrease in ensheathed axons [8, 10]: 2 fold; number of myelinated axons [8, 10]: significant correlative increase in the number of myelinated axons; more wraps of myelin on average than control nerves [8, 11]: 25%; percentage of myelinated axons with more than 25 wraps of myelin [8, 11]: more than 30%; thickness of the myelin sheath (number of lamellae distribution) vs contralateral control nerve ([8]; newborn mice, sciatic nerve): significantly thicker; total number of axons vs contralateral control nerves ([8]; ultrastructural studies): did not reveal any differences in the total number of axons; myelin protein expression (P0, MAG), p75NTR -/- cocultures [4]: neither BDNF nor TrkB-Fc had any effect; Schwann cell proliferation and morphology of ensheathed Schwann cells [2]: Neither BDNF nor NT3 caused any changes; cell death (neurofilament and nuclear staining) [2]: no sign of increased cell death; formation of mature myelin internodes (P0 immunostaining) ([2]; NT3 100 ng/ml): produced an enhancement in myelin formation; myelin protein expression (P0, MAG), wild-type cocultures [5]: enhanced; P0 and MAG protein expression, p75NTR -/- mice [6]: neither BDNF nor TrkB-Fc were able to modulate myelin protein expression; enhancement of MAG and P0 expression in the sciatic nerves ([7]; 3 μg s.c., 1-day-old mouse pups, vs saline-injected contralateral leg): more than 50%; P0 and MAG protein expression, wild-type mice [7]: enhanced P0 and MAG protein expression; P0 and MAG expression in sciatic nerve ([7]; s.c. injection of newborn mice, nerves isolated four days later (Example 2)): enhanced P0 and MAG expression
